The labels stand for the following.
B1: human PA28α (natural protein)
chain: MAMLRVQPEAQAKVDVFREDLCTKTENLLGSYFPKKISELDAFLKEPALNEANLSNLKAPLDIPVPDPVKEKEKEERKKQQEKEDKDEKKKGEDEDKGPPCGPVNCNEKIVVLLQRLKPEIKDVIEQLNLVTTWLQLQIPRIEDGNNFGVAVQEKVFELMTSLHTKLEGFHTQISKYFSERGDAVTKAAKQPHVGDYRQLVHELDEAEYRDIRLMVMEIRNAYAVLYDIILKNFEKLKKPRGETKGMIY
notes: C-terminal residue printed as Y249; Stood in the experiments as a subunit of m1; also called PA28 α1, α2, α3, α4 (its copies in the heptamer); source: E. coli BL21 (DE3), co-expressed with PA28β, purified as the PA28αβ heteroheptamer
B2: human PA28β (natural protein)
chain: not shown
notes: C-terminal residue printed as Y239; Stood in the experiments as a subunit of m1; also called PA28 β1, β2, β3 (its copies in the heptamer); source: E. coli BL21 (DE3), co-expressed with PA28α, purified as the PA28αβ heteroheptamer
B3: bovine iCP subunit α5 (natural protein, UniProt Q5E987 1-241, looked up)
chain: MFLTRSEYDRGVNTFSPEGRLFQVEYAIEAIKLGSTAIGIQTSEGVCLAVEKRITSPLMEPSSIEKIVEIDAHIGCAMSGLIADAKTLIDKARVETQNHWFTYNETMTVESVTQAVSNLALQFGEEDADPGAMSRPFGVALLFGGVDEKGPQLFHMDPSGTFVQCDARAIGSASEGAQSSLQEVYHKSMTLKEAIKSSLIILKQVMEEKLNATNIELATVQPGQNFHMFTKEELEEVIKDI
notes: 20S proteasome subunit α5, bovine; Stood in the experiments as a subunit of m2; source: purified from bovine spleen as a subunit of the iCP
B4: bovine iCP subunit α4 (natural protein)
chain: not shown
notes: 20S proteasome subunit α4, bovine; Stood in the experiments as a subunit of m2; source: purified from bovine spleen as a subunit of the iCP
B5: bovine iCP subunit α2 (natural protein, UniProt Q3T0Y5 1-234, looked up)
chain: MAERGYSFSLTTFSPSGKLVQIEYALAAVAGGAPSVGIKAANGVVLATEKKQKSILYDERSVHKVEPITKHIGLVYSGMGPDYRVLVHRARKLAQQYYLVYQEPIPTAQLVQRVASVMQEYTQSGGVRPFGVSLLICGWNEGRPYLFQSDPSGAYFAWKATAMGKNYVNGKTFLEKRYNEDLELEDAIHTAILTLKESFEGQMTEDNIEVGICNEAGFRRLTPTEVKDYLAAIA
notes: 20S proteasome subunit α2, bovine; Stood in the experiments as a subunit of m2; source: purified from bovine spleen as a subunit of the iCP

Holding throughout (details): both partners purified
For one test, the target named is T1, bovine iCP subunit α3 (bovine, UniProt Q3ZCK9 1-261).
T1 construct: 20S proteasome subunit α3, bovine; Stood in the experiments as a subunit of m2; source: purified from bovine spleen as a subunit of the iCP
T1 sequence (Q3ZCK9 whole entry): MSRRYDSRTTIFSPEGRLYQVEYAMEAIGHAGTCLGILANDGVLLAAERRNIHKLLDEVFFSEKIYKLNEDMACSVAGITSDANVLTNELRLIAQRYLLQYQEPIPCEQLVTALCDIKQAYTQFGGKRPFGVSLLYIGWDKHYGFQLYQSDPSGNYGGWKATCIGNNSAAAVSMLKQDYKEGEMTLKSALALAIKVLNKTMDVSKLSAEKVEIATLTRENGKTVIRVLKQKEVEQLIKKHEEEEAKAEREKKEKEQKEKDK
Briefly: cryo-EM structure; PA28αβ and iCP mixed at a molar ratio of 10:1, 37 °C 30 min, cross-linked with 0.1% glutaraldehyde at 4 °C for 2 h, glycerol gradient; single-capped (4.1 Å) and double-capped (4.2 Å) complexes and free iCP (3.3 Å) from one data set.

The next test has as its target T2, bovine iCP subunit α6 (bovine, UniProt Q3T0X5 1-263).
T2 construct: 20S proteasome subunit α6, bovine; Stood in the experiments as a subunit of m2; source: purified from bovine spleen as a subunit of the iCP
The test can be described thus: cross-linking; XL-MS: PA28αβ and iCP mixed 10:1, 37 °C 30 min, 0.25 mM BS3 on ice 2 h, glycerol gradient, trypsin digest, pLink2; E-value threshold 1.00E-02.

The test “bovine iCP subunit α4” concerns the target B4. The test can be described thus: cryo-EM structure; PA28αβ and iCP mixed at a molar ratio of 10:1, 37 °C 30 min, cross-linked with 0.1% glutaraldehyde at 4 °C for 2 h, glycerol gradient; single-capped (4.1 Å) and double-capped (4.2 Å) complexes and free iCP (3.3 Å) from one data set.
In the test “human PA28α” the target is B1. The test is described as above.
In the test “human PA28β” the target is B2. The test is described as above.

T2 sequence (Q3T0X5 whole entry): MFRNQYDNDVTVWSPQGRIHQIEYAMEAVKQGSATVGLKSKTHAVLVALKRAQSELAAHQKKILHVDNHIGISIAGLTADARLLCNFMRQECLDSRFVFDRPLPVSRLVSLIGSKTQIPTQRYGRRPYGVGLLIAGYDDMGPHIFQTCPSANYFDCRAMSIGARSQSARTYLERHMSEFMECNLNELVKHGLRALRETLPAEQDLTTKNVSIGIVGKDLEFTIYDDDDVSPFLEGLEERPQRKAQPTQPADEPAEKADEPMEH
Sequence of bovine iCP subunit α4 (Q3ZBG0 whole entry): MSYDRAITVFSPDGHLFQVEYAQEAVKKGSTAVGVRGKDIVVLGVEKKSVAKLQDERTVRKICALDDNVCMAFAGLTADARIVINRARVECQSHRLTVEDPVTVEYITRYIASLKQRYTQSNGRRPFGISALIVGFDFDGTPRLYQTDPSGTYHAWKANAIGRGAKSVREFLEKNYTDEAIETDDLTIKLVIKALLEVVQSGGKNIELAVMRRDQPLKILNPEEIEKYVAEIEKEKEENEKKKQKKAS

On to B1, for which, in the test with bovine iCP subunit α3, the binding result is on record as “binds”.

Take B2: the binding result in the test with bovine iCP subunit α6, in the test with bovine iCP subunit α3 and with bovine iCP subunit α4 was “binds” in each case. Turning to B3, in the test with human PA28α, the binding result is “binds”. Same read-out and setting: in the case of B4 it was “binds”. With B5, the binding result with human PA28α and with human PA28β was “binds” throughout.
